The record followed here is paper PMC7595419.

The data set addresses SicA-His6 (Salmonella enterica serovar Typhimurium) (UniProt P69066). Kind of data set: EMSA.

SicA-His6 (Salmonella enterica serovar Typhimurium), sequence (P69066 whole entry): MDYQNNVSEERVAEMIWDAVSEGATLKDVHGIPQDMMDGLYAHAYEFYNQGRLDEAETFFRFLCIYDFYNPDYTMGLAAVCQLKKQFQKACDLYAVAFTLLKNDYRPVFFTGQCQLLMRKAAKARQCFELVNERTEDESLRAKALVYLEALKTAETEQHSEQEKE

Take “ATAGGATCCCGTTGTATAAGGTTTTTTGTAGGCTTTTAAAAGCCTCCTGGGTTTTTAGTGAAGCTGAGTGATAGAAGCTCTGTATTTGCATAGCGTTTTTAATATTCCTGAATAGGGGAGTGGGAACATTCAACAGGGTTAACAACCCTTTAAAAGGATGTGACTTTTATGCACCAGGAACTTTAAAAAAATGTCCTTTTTAATGAGGAAACGCTTCTGATCAGGCGGGGAGGCATCCTGACGTCCATACGTAGTGGCGATCATGGGGGAGATCGGTACATCAAATGTCTAGATAT (double strand) [sopB regulatory region (-200 to +79)]”: the binding entry is listed as “no binding”.
